The series addresses HsAGO2 D669A (catalytically dead) (Homo sapiens, UniProt Q9UKV8 1-859, D669A). The experiment in a line: cryo-EM (3.3 A); 1 mM Mg2+; one Mg modelled; Dissociation filter binding: 17.6 mM HEPES pH 7.4, 97.8 mM KOAc, 0.978 mM Mg(OAc)2, 5 mM DTT, BSA, yeast tRNA, 0.01% IGEPAL, 1.6% glycerol, 37 C; cryo-EM complex: 50 mM Tris pH 7.5, 150 mM NaCl, 1 mM MgCl2, 2% glycerol, 0.5 mM TCEP (target bound at 25 C in 10% glycerol). The conditions noted are these: protein: recombinant; tags: 3xFLAG-SUMOEu1, cleaved off by SENPEuB; label: biotin on target 3' end (click, diazo biotin azide); guide-target paired from g2 to g22; target overhangs 5' 3 nt and 3' 3 nt; g1 not paired.

HsAGO2 D669A (catalytically dead), sequence (Q9UKV8 whole entry D669A): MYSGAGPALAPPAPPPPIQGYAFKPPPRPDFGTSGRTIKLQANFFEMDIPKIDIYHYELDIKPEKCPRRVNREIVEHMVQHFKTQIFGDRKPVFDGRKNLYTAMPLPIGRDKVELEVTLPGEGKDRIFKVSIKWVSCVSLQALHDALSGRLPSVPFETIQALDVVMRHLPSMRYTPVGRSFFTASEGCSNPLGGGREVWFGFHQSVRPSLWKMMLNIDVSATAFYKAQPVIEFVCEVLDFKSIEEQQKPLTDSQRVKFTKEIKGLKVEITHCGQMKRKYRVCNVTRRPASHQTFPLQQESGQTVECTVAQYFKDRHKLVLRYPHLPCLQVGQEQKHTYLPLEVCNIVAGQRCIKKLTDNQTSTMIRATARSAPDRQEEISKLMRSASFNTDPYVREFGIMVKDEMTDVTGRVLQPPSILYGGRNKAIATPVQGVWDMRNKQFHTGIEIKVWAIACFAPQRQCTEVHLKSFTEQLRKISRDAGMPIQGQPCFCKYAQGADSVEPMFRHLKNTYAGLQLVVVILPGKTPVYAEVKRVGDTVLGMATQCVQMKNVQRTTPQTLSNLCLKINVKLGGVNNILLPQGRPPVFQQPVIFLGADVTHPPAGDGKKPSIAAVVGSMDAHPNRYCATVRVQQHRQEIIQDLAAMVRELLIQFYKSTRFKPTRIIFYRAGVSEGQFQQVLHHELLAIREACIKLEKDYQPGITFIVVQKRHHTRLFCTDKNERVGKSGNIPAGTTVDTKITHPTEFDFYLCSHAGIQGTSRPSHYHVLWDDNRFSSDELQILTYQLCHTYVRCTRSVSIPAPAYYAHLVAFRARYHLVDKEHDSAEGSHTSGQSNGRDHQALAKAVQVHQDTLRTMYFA

B1: miR-7 guide (22 nt) / fully complementary target (dsRNA)
RNA 1: UGGAAGACUAGUGAUUUUGUUG
RNA 2: UUUCAACAAAAUCACUAGUCUUCCAAAU
modifications: guide 5'-phosphate; target nt 1-3 (U) and 26-27 (A) 2'-O-methyl; 3'-terminal nt is deoxyuridine with 5-octadiynyl
For B1, the binding result is “binds”.
